Test results as given in patent US20140248666A1 (Amgen, published 2014).

T1: human sclerostin, mature form (signal peptide removed) (human, UniProt Q9BQB4 24-213)
T1 construct: 190 amino acid glycoprotein with four disulfide bonds (C1-C5, C2-C6, C3-C7, C4-C8); also called SOST; recombinant human sclerostin
T1 sequence: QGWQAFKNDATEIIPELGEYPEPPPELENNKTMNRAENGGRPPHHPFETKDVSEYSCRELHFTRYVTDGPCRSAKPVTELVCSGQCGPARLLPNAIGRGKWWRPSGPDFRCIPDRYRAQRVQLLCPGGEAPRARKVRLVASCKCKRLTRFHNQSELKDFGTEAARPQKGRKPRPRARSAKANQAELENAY


Columns and labels:
[1] = target: T1, human sclerostin, mature form (signal …); experiment: KinExA solution equilibrium binding, human sclerostin-coated beads
Description: The affinity of several anti-sclerostin antibodies to human sclerostin was assessed by a solution equilibrium binding analysis using KinExA® 3000 (Sapidyne Instruments Inc., Boise, Id.). For these measurements, Reacti-Gel 6× beads (Pierce, Rockford, Ill.) were pre-coated with 40 μg/ml human sclerostin in 50 mM Na2CO3, pH 9.6 at 4° C. overnight. The beads were then blocked with 1 mg/ml BSA in 1M Tris-HCl, pH 7.5 at 4° C. for two hours. 10 pM, 30 pM, or 100 pM of the antibody was mixed with various concentrations of human sclerostin, ranging in concentration from 0.1 pM to 1 nM, and equilibrated at room temperature for over 8 hours in PBS with 0.1 mg/ml BSA and 0.005% P20. The mixtures were then passed over the human sclerostin coated beads. The amount of bead-bound anti-sclerostin antibody was quantified using fluorescent Cy5-labeled goat anti-mouse-IgG or fluorescent Cy5-labeled goat anti-human-IgG antibodies (Jackson Immuno Research, West Grove, Pa.) for the mouse or human antibody samples, respectively. The amount of fluorescent signal measured was proportional to the concentration of free anti-sclerostin antibody in each reaction mixture at equilibrium. The dissociation equilibrium constant (KD) was obtained from nonlinear regression of the competition curves using a n-curve one-site homogeneous binding model provided in the KinExA Pro software.

[2] = target: T1, human sclerostin, mature form (signal …); experiment: Biacore 3000; antibody captured by anti-human IgG Fc, sclerostin as analyte
Description: The assay format was capture of the anti-sclerostin antibody by immobilised anti-human IgG-Fc then titration of the sclerostin over the captured surface. An example of the procedure is given below: BIA (Biamolecular Interaction Analysis) was performed using a BIAcore 3000 (BIAcore AB). Affinipure F(ab′)₂ Fragment goat anti-human IgG, Fc fragment specific (Jackson
ImmunoResearch) was immobilised on a CM5 Sensor Chip via amine coupling chemistry to a capture level of ≈4000 response units (RUs). HBS-EP buffer (10 mM HEPES pH 7.4, 0.15 M NaCl, 3 mM EDTA, 0.005% Surfactant P20, BIAcore AB) containing 1 mg/mL CM-Dextran was used as the running buffer with a flow rate of 10 μl/min. A 10 μl injection of the anti-sclerostin antibody at ˜5 μg/mL was used for capture by the immobilised anti-human IgG-Fc. Antibody capture levels were typically 100-200 RU. Sclerostin was titrated over the captured anti-sclerostin antibody at various concentrations at a flow rate of 30 μL/min. The surface was regenerated by two 10 μL injections of 40 mM HCl, followed by a 5 μL injection of 5 mM NaOH at a flowrate of 10 μL/min.
Background subtraction binding curves were analysed using the BIAevaluation software (version 3.2) following standard procedures. Kinetic parameters were determined from the fitting algorithm.

[3] = target: T1, human sclerostin, mature form (signal …); experiment: Biacore cross-blocking, human sclerostin on CM5 chip; mixed with competitor Ab-4, each 1.3 uM binding sites
Description: (§1) Human sclerostin was coupled to a CM5 Biacore chip using standard amine coupling chemistry to generate a sclerostin coated surface. 300 resonance units of sclerostin were coupled to the surface.
(§2) 20 μL of the test mixture was passed over the sclerostin-coated chip at a flow rate of 10 μL/min and the amount of binding recorded. The chip was then treated with two 60 second pulses of 30 mM HCl to remove all of the bound antibody. A solution containing only one of the antibodies of the test mixture (at 1.3 μM in the same buffer as the test mixture on a binding site basis) was then passed over the chip in the same manner as the test mixture and the amount of binding recorded. The chip was again treated to remove all of the bound antibody and finally a solution containing the other antibody from the test mixture alone (at 1.3 μM in the same buffer as the test mixture on a binding site basis) was passed over the chip and the amount of binding recorded.
(§3) The table below show the results from cross-blocking assays on a range of different antibodies. The values in each square of the table represent the amount of binding (in RU) seen when the antibodies (at 1.3 μM on a binding site basis) or buffer indicated in the top row of the table were mixed with the antibodies (at 1.3 uM on a binding site basis) or buffer indicated in the first column of the table.

[4] = target: T1, human sclerostin, mature form (signal …); experiment: Biacore cross-blocking, human sclerostin on CM5 chip; mixed with competitor Ab-A, each 1.3 uM binding sites
Description: as §1, §2, §3

[5] = target: T1, human sclerostin, mature form (signal …); experiment: Biacore cross-blocking, human sclerostin on CM5 chip; mixed with competitor Ab-13, each 1.3 uM binding sites
Description: as §1
(§4) The antibodies to be tested were diluted to a concentration of 200 ug/ml in HBS-EP buffer (being 10 mM HEPES pH 7.4, 150 mM NaCl, 3 mM EDTA, 0.005% (v/v) Surfactant P20) and then mixed in a one to one molar ratio (on a binding site basis) to generate the test mixture. This test mixture thus contained each antibody at a concentration of 100 ug/ml (1.3 um on a binding site basis). Separate solutions containing each of the antibodies in the test mix alone were also prepared. These solutions contained the individual antibodies in HBS-EP buffer at a concentration of 100 ug/ml (1.3 um on a binding site basis).
as §2

[6] = target: T1, human sclerostin, mature form (signal …); experiment: Biacore cross-blocking, human sclerostin on CM5 chip; mixed with competitor Ab-19, each 1.3 uM binding sites
Description: as §1, §4, §2

[7] = target: T1, human sclerostin, mature form (signal …); experiment: Biacore cross-blocking on human sclerostin; mixture with competitor Ab-19, mean RU against the sum of each alone
Description: as §1, §4, §2

[8] = target: T1, human sclerostin, mature form (signal …); experiment: Biacore cross-blocking, human sclerostin on CM5 chip; mixed with competitor Ab-3, each 1.3 uM binding sites
Description: as §1, §2, §3

[9] = target: T1, human sclerostin, mature form (signal …); experiment: Biacore cross-blocking on human sclerostin; mixture with competitor Ab-3, mean RU against the sum of each alone
Description: as §1, §4, §2

| Binder | Kd [1] [pM] | Kd [2] [pM] | koff [2] [s⁻¹] | kon [2] [M⁻¹ s⁻¹] | amount of binding (RU) [3] [RU] | amount of binding (RU) [4] [RU] | amount of binding (RU) [5] [RU] | amount of binding (RU) [6] [RU] | percentage of the theoretical binding [7] [%] | amount of binding (RU) [8] [RU] | percentage of the theoretical binding [9] [%] |
| --- | --- | --- | --- | --- | --- | --- | --- | --- | --- | --- | --- |
| Antibody 14 (antibody, human IgG2, kappa, V domains shown, Humanized Ab-13; Mature LC and HC; also called Ab-14; Ab14) VH: EVQLVQSGAEVKKPGASVKVSCKASGYTFTDYYMNWVRQAPGQRLEWMGDINPYNDDTTYNHKFKGRVTITRDTSASTAYMELSSLRSEDTAVYYCARETAVITTNAMDYWGQGTTVTVSS VL: DIQLTQSPSFLSASVGDRVTITCRASSSVTSSYLNWYQQKPGKAPKLLIYSTSNLASGVPSRFSGSGSGTEFTLTISSLQPEDFATYYCQQYDFFPSTFGGGTKVEIKR | 1 | 1.48 | 4.87e-06 | 3.3e+06 |  |  |  |  |  |  |  |
| Antibody 3 (antibody, mouse IgG1, kappa, Mature LC and HC (signal peptide removed); Parent of humanized Ab-15; also called Ab-3) light: EIVLTQSPALMAASPGEKVTITCSVSSTISSNHLHWFQQKSDTSPKPWIYGTSNLASGVPVRFSGSGSGTSYSLTISSMEAEDAATYYCQQWSSYPLTFGAGTKLELRRADAAPTVSIFPPSSEQLTSGGASVVCFLNNFYPKDINVKWKIDGSERQNGVLNSWTDQDSKDSTYSMSSTLTLTKDEYERHNSYTCEATHKTSTSPIVKSFNRNEC heavy: EVQLQQSGAELVRPGALVKLSCTASDFNIKDFYLHWMRQRPEQGLDWIGRIDPENGDTLYDPKFQDKATLTTDTSSNTAYLQLSGLTSETTAVYYCSREADYFHDGTSYWYFDVWGAGTTITVSSAKTTPPSVYPLAPGSAAQTNSMVTLGCLVKGYFPEPVTVTWNSGSLSSGVHTFPAVLQSDLYTLSSSVTVPSSTWPSETVTCNVAHPASSTKVDKKIVPRDCGCKPCICTVPEVSSVFIFPPKPKDVLTITLTPKVTCVVVDISKDDPEVQFSWFVDDVEVHTAQTQPREEQFNSTFRSVSELPIMHQDWLNGKEFKCRVNSAAFPAPIEKTISKTKGRPKAPQVYTIPPPKEQMAKDKVSLTCMITDFFPEDITVEWQWNGQPAENYKNTQPIMDTDGSYFIYSKLNVQKSNWEAGNTFTCSVLHEGLHNHHTEKSLSHSPGK |  |  |  |  | 845 | 952 | 428 | 896 | 94.4 |  |  |
| Antibody 4 (antibody, mouse IgG1, kappa, V domains shown, Mature LC and HC; Parent of humanized Ab-5; also called Ab-4) VH: EVQLQQSGPELMKPGASVKMSCKASGYTFTDYNMHWVKQNQGKTLEWIGEINPNSGGAGYNQKFKGKATLTVDKSSTTAYMELRSLTSEDSAVYYCARLGYDDIYDDWYFDVWGAGTTVTVSS VL: DIQMTQITSSLSASLGDRVSISCRASQDISNYLNWYQQKPDGTFKLLIFYTSRLLSGVPSRFSGSGSGTDYSLTIYNLEQEDFATYFCQQGDTLPYTFGGGTKLEIKR | 3 |  |  |  |  | 860 | 1020 | 822 | 60.8 | 869 | 85.4 |
| Antibody 13 (antibody, mouse IgG1, kappa, V domains shown, Mature LC and HC; Parent of humanized Ab-14; also called Ab-13) VH: EVQLQQSGPELVKPGASVKMSCKASGYTFTDYYMNWVKQSHGESLEWIGDINPYNDDTTYNHKFKGKATLTVDKSSNTAYMQLNSLTSEDSAVYYCARETAVITTNAMDYWGQGTSVTVSS VL: QIVLTQSPAIMSASPGEKVTMTCRASSSVTSSYLNWYQQKPGSSPKLWIYSTSNLASGVPARFSGSGSGTSYSLTISSVEAEDAATYYCQQYDFFPSTFGGGTKLEIKR | 0.6 |  |  |  | 1010 | 1110 |  | 1040 | 97 | 432 | 58 |
| Antibody 5 (antibody, human IgG2, kappa, V domains shown, Humanized Ab-4; Mature LC and HC; also called Ab-5) VH: EVQLVQSGAEVKKPGASVKVSCKASGYTFTDYNMHWVRQAPGQGLEWMGEINPNSGGAGYNQKFKGRVTMTTDTSTSTAYMELRSLRSDDTAVYYCARLGYDDIYDDWYFDVWGQGTTVTVSS VL: DIQMTQSPSSLSASVGDRVTITCRASQDISNYLNWYQQKPGKAPKLLIYYTSRLLSGVPSRFSGSGSGTDFTLTISSLQPEDFATYYCQQGDTLPYTFGGGTKVEIKR | 6 | 97.8 | 0.000174 | 1.78e+06 |  |  |  |  |  |  |  |

Now from value to binder:

| Kd [1] [pM] | Kd [2] [pM] | koff [2] [s⁻¹] | kon [2] [M⁻¹ s⁻¹] | amount of binding (RU) [3] [RU] | amount of binding (RU) [4] [RU] | amount of binding (RU) [5] [RU] | amount of binding (RU) [6] [RU] | percentage of the theoretical binding [7] [%] | amount of binding (RU) [8] [RU] | percentage of the theoretical binding [9] [%] | Binder |
| --- | --- | --- | --- | --- | --- | --- | --- | --- | --- | --- | --- |
| 4 |  |  |  |  |  |  |  |  |  |  | Antibody 23 (antibody, human IgG2, kappa, Humanized Ab-19, IgG2 version; Mature LC and HC; also called Ab-23) light: not shown heavy: EVQLVQSGAEVKKPGSSVKVSCKASGFTFTDYIMHWVRQAPGQGLEWMGYINPYNDDTEYNEKFKGRVTITADKSTSTAYMELSSLRSEDTAVYYCARSIYYYDAPFAYWGQGTLVTVSSASTKGPSVFPLAPCSRSTSESTAALGCLVKDYFPEPVTVSWNSGALTSGVHTFPAVLQSSGLYSLSSVVTVPSSNFGTQTYTCNVDHKPSNTKVDKTVERKCCVECPPCPAPPVAGPSVFLFPPKPKDTLMISRTPEVTCVVVDVSHEDPEVQFNWYVDGVEVHNAKTKPREEQFNSTFRVVSVLTVVHQDWLNGKEYKCKVSNKGLPAPIEKTISKTKGQPREPQVYTLPPSREEMTKNQVSLTCLVKGFYPSDIAVEWESNGQPENNYKTTPPMLDSDGSFFLYSKLTVDKSRWQQGNVFSCSVMHEALHNHYTQKSLSLSPGK |
| 3 |  |  |  | 789 | 863 | 1020 |  |  | 892 |  | Antibody 19 (antibody, V domains shown, the signal peptide is not part of the antibody as tested; Parent of humanized Ab-20 and Ab-23; also called Ab-19) VH: EVQLQQSGPELVKPGASVKMSCKASGFTFTDYIMHWVKQKPGQGLEWIGYINPYNDDTEYNEKFKGKATLTSDKSSSTAYMDLSSLTSEGSAVYYCARSIYYYDAPFAYWGQGTLVTVSS VL: DIQMTQTTSSLSASLGDRVNISCRASQDISSYLNWYQQKPDGTVKLLIYSTSRLNSGVPSRFSGSGSGTDYSLTISNLAQEDIATYFCQQDIKHPTFGGGTKLELKR |
